Assay [1] addresses T1, biotinylated splitNanoluc1-8.
T1 chain: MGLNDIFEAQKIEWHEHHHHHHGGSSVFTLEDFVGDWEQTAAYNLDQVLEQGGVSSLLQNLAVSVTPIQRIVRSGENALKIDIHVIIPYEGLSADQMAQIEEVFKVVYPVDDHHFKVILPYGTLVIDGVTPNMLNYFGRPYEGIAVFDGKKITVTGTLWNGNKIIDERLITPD
As to the kind of experiment: mRNA display pull-down with biotinylated splitNanoluc1-8, qPCR.
Protocol: (§1) Each Display molecule before reacting with biotinylated splitNanoluc1-8 was also subjected to qPCR in the same way, and the input nucleic acid amount was calculated.

For assay [2] the target is unchanged. Briefly: mRNA display pull-down with biotinylated splitNanoluc1-8 on streptavidin beads, qPCR.
Protocol: as §1

No end group written: not given here. puromycin linker = puromycin spacer joining the C-terminus of the translated peptide to its mRNA (mRNA display); mRNA = not defined here

Turning to MVSGWRLFKKISGSGSGSGSENLYFQGKK-{puromycin linker-mRNA} (reading uncertain; also: mRNA reverse transcribed before assay, mRNA display molecule) [splitNanoluc-10], in assay [1], the “fold lower recovery rate than the splitNanoluc9-10 fusion peptide” value is no less than 300 times. In addition, the binding result in assay [2] is “no binding”.
As for MGSMLFRVTINSGSGSGSGSENLYFQGKK-{puromycin linker-mRNA} (reading uncertain; also: mRNA reverse transcribed before assay, mRNA display molecule) [splitNanoluc-9], the “fold lower recovery rate than the splitNanoluc9-10 fusion peptide” value in assay [1] is no less than 300 times. Also, in assay [2], the binding result was “no binding”.
